The supplement of paper PMC10126150
± gives the standard deviation of the averaged measurements.
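Further: ATP exposure 15 min at 22 °C before imaging.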

Each sequence was assayed on ATP (assay: switch fluorescence ratio, 500 uM ATP over buffer (Cy3 cluster intensity, sum of 5 cycles each) (fold (ratio)); higher = stronger signal-on switching upon ATP binding; sequences stand for … in TCGTCGGCAGCGTCAGATGTGTATAAGAGACAGTTTTTTTTTTTTTTTTTTTTTTTTT…TC). Details: aptamer strand: ATP DNA aptamer (quencher-CACCTGGGGGAGTATTGCGGAGGAAGG + anchor), 100 nM annealed; ATP concentration: 500 uM.
Method in brief: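 Clusters with intensities outside 100-1000 RFU were excluded. The remaining Cy3-labelled switching-strand clusters on a modified Illumina MiSeq flow-cell had been annealed to 100 nM quencher-labelled ATP aptamer and imaged in selection buffer, then after 15 min with 500 uM ATP at 22 °C, for five cycles separated by NaOH stripping and re-annealing. The fluorescence ratio, averaged per switch-domain sequence, is each cluster's summed target-cycle Cy3 intensity over its summed buffer-cycle Cy3 intensity.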
TTAATTGAGG gave a switch fluorescence ratio of 0.993 ± 0.044. With TTAATTGGGT the switch fluorescence ratio was 1 ± 0.028. With TTAATTTGTT the switch fluorescence ratio was 0.988 ± 0.042. With TTAATTTTAG the switch fluorescence ratio was 0.9764 ± 0.0094. For TTAATTTTGG, the switch fluorescence ratio was 1.02 ± 0.012. TTAATTTTTC gave a switch fluorescence ratio of 1.02 ± 0.03. Sequence TTACAAGAAA has a switch fluorescence ratio of 1.03 ± 0.041. TTACAAGGTT gave a switch fluorescence ratio of 1.02 ± 0.013. TTACAAGTAT gave a switch fluorescence ratio of 1.03 ± 0.021. TTACAAGTGT showed a switch fluorescence ratio of 0.993 ± 0.016. TTACAAGTTA was tested, and the switch fluorescence ratio was 1.05 ± 0.064. TTACAATTTC showed a switch fluorescence ratio of 1.03 ± 0.056. TTACACATCA showed a switch fluorescence ratio of 1.083 ± 0.0047. TTACAGGGGA gave a switch fluorescence ratio of 1.01 ± 0.044. With TTACAGGGTA the switch fluorescence ratio was 0.981 ± 0.025. TTACAGTTGG was tested, and the switch fluorescence ratio was 1.03 ± 0.023. In the case of TTACATATGT, the switch fluorescence ratio is reported as 1.02 ± 0.021. TTACATGATG was tested, and the switch fluorescence ratio was 1.01 ± 0.013. TTACATGCTA gave a switch fluorescence ratio of 1 ± 0.032. With TTACATGTAA the switch fluorescence ratio was 0.996 ± 0.023. TTACATTT gave a switch fluorescence ratio of 1.02 ± 0.017. TTACATTTAT gave a switch fluorescence ratio of 1.023 ± 0.0083. Work on TTACCATTGG yielded a switch fluorescence ratio of 1.04 ± 0.082. Sequence TTACCCTTGG has a switch fluorescence ratio of 1.17 ± 0.05. TTACCTGAAC was tested, and the switch fluorescence ratio was 2.02 ± 0.31. In the case of TTACGAAGTT, the switch fluorescence ratio is reported as 1 ± 0.019. TTACGCATTT was tested, and the switch fluorescence ratio was 1.12 ± 0.08. For TTACGCCGAC, the switch fluorescence ratio was 1.14 ± 0.15. For TTACGCTCAT, the switch fluorescence ratio was 2.79 ± 0.61. In the case of TTACGGGCGG, the switch fluorescence ratio is reported as 1.03 ± 0.078. TTACGGGGAC gave a switch fluorescence ratio of 1.08 ± 0.089. Sequence TTACGGGTGG has a switch fluorescence ratio of 1.01 ± 0.044. For TTACGGTCCA, the switch fluorescence ratio was 1.05 ± 0.017. In the case of TTACGGTGGT, the switch fluorescence ratio is reported as 1.03 ± 0.036. TTACGGTTT gave a switch fluorescence ratio of 1 ± 0.025. In the case of TTACGTTGGG, the switch fluorescence ratio is reported as 0.997 ± 0.035. For TTACTAAGGT, the switch fluorescence ratio was 1.063 ± 0.01. Work on TTACTACGGC yielded a switch fluorescence ratio of 1.09 ± 0.021. For TTACTAGGCG, the switch fluorescence ratio was 1.01 ± 0.053. TTACTATATG gave a switch fluorescence ratio of 1.03 ± 0.018. TTACTATTGG gave a switch fluorescence ratio of 0.978 ± 0.013. For TTACTCGCTG, the switch fluorescence ratio was 1.07 ± 0.027. In the case of TTACTCTTCG, the switch fluorescence ratio is reported as 1.062 ± 0.0074. Work on TTACTGGACG yielded a switch fluorescence ratio of 1.07 ± 0.058. In the case of TTACTGGAG, the switch fluorescence ratio is reported as 1.02 ± 0.06. TTACTGGATA showed a switch fluorescence ratio of 0.987 ± 0.046. With TTACTGGGTT the switch fluorescence ratio was 1 ± 0.084. In the case of TTACTGTAAT, the switch fluorescence ratio is reported as 1.18 ± 0.037. With TTACTGTTAC the switch fluorescence ratio was 1.32 ± 0.083. TTACTTACTT showed a switch fluorescence ratio of 1.28 ± 0.081. Sequence TTACTTAGGT has a switch fluorescence ratio of 1.03 ± 0.068. TTAGAAAAGA showed a switch fluorescence ratio of 1 ± 0.033. In the case of TTAGAACTCT, the switch fluorescence ratio is reported as 1.01 ± 0.014. TTAGAAGACT gave a switch fluorescence ratio of 1.08 ± 0.08. TTAGACATTT gave a switch fluorescence ratio of 1.01 ± 0.026. TTAGAGGCTG gave a switch fluorescence ratio of 0.912 ± 0.15. TTAGAGGTTA gave a switch fluorescence ratio of 0.98609 ± 0.00054. TTAGAGGTTT gave a switch fluorescence ratio of 0.971 ± 0.038. TTAGAGTCTG was tested, and the switch fluorescence ratio was 1.005 ± 0.01. Sequence TTAGATACAT has a switch fluorescence ratio of 1 ± 0.019. In the case of TTAGATAGGT, the switch fluorescence ratio is reported as 1.02 ± 0.062. With TTAGATATAT the switch fluorescence ratio was 0.996 ± 0.036. Work on TTAGATTGTG yielded a switch fluorescence ratio of 0.978 ± 0.03. In the case of TTAGCATAAA, the switch fluorescence ratio is reported as 1.04 ± 0.024. Sequence TTAGCCAGCT has a switch fluorescence ratio of 0.96986 ± 0.00044. Work on TTAGGAGGGG yielded a switch fluorescence ratio of 1.03 ± 0.11. With TTAGGATGTA the switch fluorescence ratio was 1.005 ± 0.0095. TTAGGATGTG gave a switch fluorescence ratio of 0.984 ± 0.022. Sequence TTAGGCGGGC has a switch fluorescence ratio of 1.02 ± 0.027. TTAGGCGTAT showed a switch fluorescence ratio of 0.989 ± 0.041. TTAGGCTGTG showed a switch fluorescence ratio of 0.986 ± 0.03. TTAGGGAACA was tested, and the switch fluorescence ratio was 1.16 ± 0.16. TTAGGGATAC was tested, and the switch fluorescence ratio was 1.88 ± 0.88. TTAGGGCAGG gave a switch fluorescence ratio of 1.06 ± 0.058. TTAGGGCGAC gave a switch fluorescence ratio of 1 ± 0.044. In the case of TTAGGGCTCG, the switch fluorescence ratio is reported as 1.01 ± 0.057. Work on TTAGGGGCAG yielded a switch fluorescence ratio of 0.981 ± 0.034. With TTAGGGGGGT the switch fluorescence ratio was 1.05 ± 0.15. TTAGGGTATT showed a switch fluorescence ratio of 1.02 ± 0.028. With TTAGGGTCT the switch fluorescence ratio was 1.01 ± 0.022. In the case of TTAGGGTGGG, the switch fluorescence ratio is reported as 1.01 ± 0.053. For TTAGGTAGTG, the switch fluorescence ratio was 0.9667 ± 0.0047. In the case of TTAGGTCGGT, the switch fluorescence ratio is reported as 1.01 ± 0.0094. With TTAGGTTAGA the switch fluorescence ratio was 0.993 ± 0.014. TTAGGTTTAA gave a switch fluorescence ratio of 1.02 ± 0.021.
